Like-named read-outs stand apart in the source and are kept apart here.
B1: human recombinant PrP^C 23-230 (domain or fragment)
chain: not shown

Experiments:
Test in all cases: SPR
[1] = molecular target: T1, synthetic human Aβ1-40, oligomerised (human, UniProt P05067)
[2] = molecular target: T2, synthetic human Aβ1-42, oligomerised (human, UniProt P05067)
[3] = molecular target: B1
[4] = molecular target: T1, synthetic human Aβ1-40, oligomerised; remark: listed apart in the source
[5] = molecular target: T2, synthetic human Aβ1-42, oligomerised; remark: listed apart in the source

Binder	Kd [1] [nM]	Kd [2] [nM]	Kd [3] [nM]	Kd [4] [nM]	Kd [5] [nM]
B1	28.8	11.3	–	–	–
caveolin-1 (Cav-1) (natural protein) MSGGKYVDSEGHLYTVPIREQGNIYKPNNKAMADELSEKQVYDAHTKEIDLVNRDPKHLNDDVVKIDFEDVIAEPEGTHSFDGIWKASFTTFTVTKYWFYRLLSALFGIPMALIWGIYFAILSFLHIWAVVPCIKSFLIEIQCISRVYSIYVHTVCDPLFEAVGKIFSNVRINLQKEI	–	–	14.1	11.4	13

Source: article PMC11485400 (Alzheimer's & Dementia, 2024)
